{"source": "patent US20220235139A1", "about": "(ROCHE DIAGNOSTICS OPERATIONS, published 2022)", "binders": {"B1": {"name": "antibody 1H11 (antibody, V domains shown)", "VH": "QSVEESGGRLVTPGTPLTLTCTASGFSLSRYWMTWVRQAPGKGLEYIGWIDRSGNTYFADWAKGRFTGSKTSTTRDLKITSPTTEDTATYFCGRGGQNNGYDLWGPGTLVTVSS", "VL": "AAVLTQTPSPVSAAVGGTVTISCQSSESVYSNNFLSWYQLKPGQRPRLLIYEASKVASGVPSRFSGSGSGTQFTLTISGVQCDDAATYYCAGGYDVSDDAFGGGTEVLVK", "notes": "Rabbit full length IgG made recombinantly in FreeStyle 293-F cells; For SPR it was captured from HEK culture supernatant on goat anti-rabbit F(ab)2; no sentence ties 1H11 to them directly; also called rabbit monoclonal anti-CSF-1R antibody"}}, "key": {"[1]": {"biological_target": "T1, SEQ ID NO 15: G-G-V-D-pY-K-N-I-H-L-E-K-K-pY-V", "T1 sequence (peptide, phosphotyrosine (pY) at positions 5 and 14)": "GGVDYKNIHLEKKYV", "test": "CelluSpots peptide array, 15-mer CSF-1R peptides in duplicate"}, "[2]": {"biological_target": "T2, SEQ ID NO 21: N-I-H-L-E-K-K-pY-V-R-R-D-S-G-F", "T2 sequence (peptide, phosphotyrosine (pY) at position 8)": "NIHLEKKYVRRDSGF", "test": "CelluSpots peptide array, 15-mer CSF-1R peptides in duplicate"}, "[3]": {"biological_target": "T3, SEQ ID NO 20: K-N-I-H-L-E-K-K-pY-V-R-R-D-S-G", "T3 sequence (peptide, phosphotyrosine (pY) at position 9)": "KNIHLEKKYVRRDSG", "test": "CelluSpots peptide array, 15-mer CSF-1R peptides in duplicate"}, "[4]": {"biological_target": "T4, SEQ ID NO: 13: P-E-G-G-V-D-pY-K-N-I-H-L-E-K-K", "T4 sequence (peptide, phosphotyrosine (pY) at position 7)": "PEGGVDYKNIHLEKK", "test": "CelluSpots peptide array, 15-mer CSF-1R peptides in duplicate"}, "[5]": {"biological_target": "T5, SEQ ID NO 19: pY-K-N-I-H-L-E-K-K-pY-V-R-R-D-S", "T5 sequence (peptide, phosphotyrosine (pY) at positions 1 and 10)": "YKNIHLEKKYVRRDS", "test": "CelluSpots peptide array, 15-mer CSF-1R peptides in duplicate"}, "[6]": {"biological_target": "T6, SEQ ID NO 16: G-V-D-pY-K-N-I-H-L-E-K-K-pY-V-R", "T6 sequence (peptide, phosphotyrosine (pY) at positions 4 and 13)": "GVDYKNIHLEKKYVR", "test": "CelluSpots peptide array, 15-mer CSF-1R peptides in duplicate"}, "[7]": {"biological_target": "T7, SEQ ID NO: 14: E-G-G-V-D-pY-K-N-I-H-L-E-K-K-pY", "T7 sequence (peptide, phosphotyrosine (pY) at positions 6 and 15)": "EGGVDYKNIHLEKKY", "test": "CelluSpots peptide array, 15-mer CSF-1R peptides in duplicate"}, "[8]": {"biological_target": "T8, SEQ ID NO 18: D-pY-K-N-I-H-L-E-K-K-pY-V-R-R-D", "T8 sequence (peptide, phosphotyrosine (pY) at positions 2 and 11)": "DYKNIHLEKKYVRRD", "test": "CelluSpots peptide array, 15-mer CSF-1R peptides in duplicate"}, "[9]": {"biological_target": "T9, SEQ ID NO 17: V-D-pY-K-N-I-H-L-E-K-K-pY-V-R-R", "T9 sequence (peptide, phosphotyrosine (pY) at positions 3 and 12)": "VDYKNIHLEKKYVRR", "test": "CelluSpots peptide array, 15-mer CSF-1R peptides in duplicate"}, "[10]": {"biological_target": "T10, phosphorylated TtSlyD-CSF1R", "T10 sequence (chain, tyrosines phosphorylated in vitro with Src (1-530) kinase; positions not stated)": "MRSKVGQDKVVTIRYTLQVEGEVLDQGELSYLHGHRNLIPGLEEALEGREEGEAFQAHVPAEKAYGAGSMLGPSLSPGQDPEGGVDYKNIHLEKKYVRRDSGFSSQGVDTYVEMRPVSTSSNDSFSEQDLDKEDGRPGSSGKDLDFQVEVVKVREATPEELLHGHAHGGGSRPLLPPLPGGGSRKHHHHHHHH", "test": "SPR (Biacore), antibody captured on anti-rabbit F(ab)2, analyte in solution, Langmuir fit, 25 C"}, "[11]": {"biological_target": "T11, human CSF-1R (Colony stimulating factor 1 receptor) (human, UniProt P07333 20-972, limits assumed)", "T11 construct": "also called M-CSF receptor; c-fms", "T11 sequence (P07333 other isoform, or with tags, fused parts or gaps limits assumed)": "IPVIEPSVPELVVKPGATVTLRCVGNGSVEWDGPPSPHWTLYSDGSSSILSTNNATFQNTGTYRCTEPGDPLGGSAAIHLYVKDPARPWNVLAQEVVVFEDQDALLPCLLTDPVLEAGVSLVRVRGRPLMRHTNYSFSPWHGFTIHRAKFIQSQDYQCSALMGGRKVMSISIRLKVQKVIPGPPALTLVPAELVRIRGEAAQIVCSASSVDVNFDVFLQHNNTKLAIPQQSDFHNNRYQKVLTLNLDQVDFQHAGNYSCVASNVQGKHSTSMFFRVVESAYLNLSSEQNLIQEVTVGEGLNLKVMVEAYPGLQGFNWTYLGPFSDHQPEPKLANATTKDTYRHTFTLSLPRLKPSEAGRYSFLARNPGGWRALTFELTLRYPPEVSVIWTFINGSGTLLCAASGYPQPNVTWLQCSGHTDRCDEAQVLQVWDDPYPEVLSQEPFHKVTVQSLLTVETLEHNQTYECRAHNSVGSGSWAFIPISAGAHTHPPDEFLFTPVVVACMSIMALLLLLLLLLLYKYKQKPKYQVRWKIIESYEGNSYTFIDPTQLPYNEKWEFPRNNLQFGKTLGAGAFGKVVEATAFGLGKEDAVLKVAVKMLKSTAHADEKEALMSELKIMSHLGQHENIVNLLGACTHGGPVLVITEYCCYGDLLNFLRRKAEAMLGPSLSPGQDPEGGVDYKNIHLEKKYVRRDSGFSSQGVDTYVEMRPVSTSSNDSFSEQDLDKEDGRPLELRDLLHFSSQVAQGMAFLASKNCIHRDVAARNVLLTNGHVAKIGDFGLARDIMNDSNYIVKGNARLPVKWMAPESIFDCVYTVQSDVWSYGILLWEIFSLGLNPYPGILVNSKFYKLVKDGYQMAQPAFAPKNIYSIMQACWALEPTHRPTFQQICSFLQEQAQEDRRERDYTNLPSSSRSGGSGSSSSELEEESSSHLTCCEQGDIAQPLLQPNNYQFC", "test": "Western blot of cell lysates: lane 2 NIH3T3 wt, lane 3 NIH 3T3+CSF1 K4, lane 4 NIH 3T3+CSF1 K8 [continued]"}, "TtSlyD-CSF1R": {"biological_target": "T12, TtSlyD-CSF1R", "T12 construct": "also called 21 kDa TtSlyD-CSF1R protein", "T12 chain": "T10 sequence (chain, tyrosines phosphorylated in vitro with Src (1-530) kinase; positions not stated)", "test": "SPR (Biacore), captured antibody, single injection of 300 nM analyte", "method": "A Biacore B3000 instrument (GE Healthcare) was used to kinetically assess the rabbit antibodies for kinetics and binding specificity for TtSlyD-CSF1R. A CMS series sensor was mounted into the system and was normalized in HBS-ET buffer (10 mM HEPES pH 7.4, 150 mM NaCl, 3 mM EDTA, 0.005% w/v Tween 20) according to the manufacturer's instructions. The sample buffer was the system buffer supplemented with 1 mg/ml CMD (Carboxymethyldextran, Sigma #86524). The system operated at 25° C. 10000 RU GAR<F(ab)2> (relative units of goat anti rabbit F(ab)2/Jackson Laboratories, cat. No. 100018) were immobilized according to the manufacturer's instructions using EDC/NHS chemistry on all flow cells. The sensor was saturated with 1M ethanolamine. The binding activity of the antibodies against the analytes were kinetically tested. […] Antibodies were captured by a 2 min injection at 10 μl/min of cell culture HEK supernatant diluted 1:2 in sample buffer. The flow rate was set to 100 μl/min. The analyte was injected at different concentration steps of 0 nM, 1.1 nM, 3.7 nM, 11.1 nM, […], 100 nM and 300 nM for 2 min. The dissociation was monitored for 5 min. Kinetic signatures were monitored and evaluated using the Biaevaluation Software and a binary Langmuir Fitting model with RMAX local. […]"}}}
{"binder": "B1", "values": [{"measurement": "% Signal", "setting": "[1]", "result": 57.1, "unit": "%"}, {"measurement": "% Signal", "setting": "[2]", "result": 45.7, "unit": "%"}, {"measurement": "% Signal", "setting": "[3]", "result": 48.9, "unit": "%"}, {"measurement": "% Signal", "setting": "[4]", "result": 100, "unit": "%"}, {"measurement": "% Signal", "setting": "[5]", "result": 62.6, "unit": "%"}, {"measurement": "% Signal", "setting": "[6]", "result": 73.9, "unit": "%"}, {"measurement": "% Signal", "setting": "[7]", "result": 55.3, "unit": "%"}, {"measurement": "% Signal", "setting": "[8]", "result": 49.8, "unit": "%"}, {"measurement": "% Signal", "setting": "[9]", "result": 91.8, "unit": "%"}, {"measurement": "Kd", "setting": "[10]", "result": 0.2, "unit": "nM"}, {"measurement": "koff", "setting": "[10]", "result": 0.000122, "unit": "s⁻¹"}, {"measurement": "kon", "setting": "[10]", "result": 578000, "unit": "M⁻¹ s⁻¹"}, {"measurement": "binding result", "setting": "[11]", "result": "binds"}, {"measurement": "binding result", "setting": "TtSlyD-CSF1R", "result": "binds"}]}
